Test results taken from US20090053180A1, “Tandem cardiac pacemaker system” (priority 2005, published 2009).
“Also recorded” adds a separate entry of the source.

Tests used:
[1] = tested on: canine proximal LV conducting system; conditions: sinus rhythm suppressed by vagal stimulation; cited from earlier work
[2] = tested on: newborn rat ventricular myocytes; assay: Whole-cell voltage clamp of expressed HCN current in newborn rat ventricular myocytes; assay type: cell-based; conditions: for V1/2 / s: fit of average data; for current density: measured at −135 mV
Experimental: Adult rats were anesthetized with ketamine-xylazine before cardiectomy, and neonatal rats decapitated. Newborn rat ventricular myocyte cultures were prepared as previously described (Protas and Robinson, 1999). Briefly, 1-2-day-old Wistar rats were euthanized, hearts were quickly removed and ventricles were dissociated using a standard trypsinization procedure. Myocytes were harvested, preplated to reduce fibroblast proliferation, cultured initially in serum-containing medium (except when being transfected with plasmids as described below), and then incubated in serum free medium (SFM) at 37° C., 5% CO2 after 24 h. Action potential studies were conducted on 4-day-old monolayer cultures plated directly onto fibronectin-coated 9×22 mm glass coverslips. For voltage clamp experiments, 4-6 day old monolayer cultures were resuspended by brief (2-3 min) exposure to 0.25% trypsin, then replated onto fibronectin-coated coverslips and studied within 2-8 h.
Adenoviral infection of the newborn ventricular myocytes was performed on cell monolayer cultures 4 days after initial plating. Cells were exposed to a virus-containing mix (m.o.i. 20, in 250 μl of culture medium) for 2 h, rinsed twice and incubated in SFM at 37° C., 5% CO2 for 24-48 hours prior to the cells being resuspended as described above for electrophysiological study.
The whole-cell patch clamp technique was employed to record mHCN2 current from cultured myocytes. Experiments were carried out on cells superfused at 35° C. The external solution contained (mM): NaCl, 140; NaOH, 2.3; MgCl2, 1; KCl, 10; CaCl2, 1; HEPES, 5; glucose, 10; pH 7.4. MnCl2 (2 mM) and BaCl2 (4 mM) were added to block other currents. The pipette solution contained (mM): aspartic acid, 130; KOH, 146; NaCl, 10; CaCl2, 2; EGTA-KOH, 5; Mg-ATP, 2; HEPES-KOH, 10; pH 7.2.
To measure the HCN activation curve, a standard two-step protocol was employed. Hyperpolarizing steps from −25 to −135 mV for mHCN2 and from −5 or −15 to −135 mV for mE324A were applied from a holding potential of −10 mV, followed by a tail current step (to −125 or −135 mV). The duration of test steps was longer at less hyperpolarized potential for mHCN2 channels, to more closely approach steady-state activation at all voltages. The normalized plot of tail current versus test voltage was fit with a Boltzmann function and then the voltage of half maximum activation (V1/2) and slope factor(s) were defined from the fitting. Activation kinetics were determined from the same traces, while deactivation kinetics were determined from traces recorded at each test potential after achieving full activation by a prepulse to −135 mV. Time constants were then obtained by fitting the early time course of activation or deactivation current traces with a monoexponential function; the initial delay and any late slow activation or deactivation phase were ignored (Qu et al., 2001; Altomare et al., 2001). Current densities are expressed as the value of the time-dependent component of current amplitude, measured at the end of the test potential and normalized to cell membrane capacitance. Records were not corrected for liquid junction potential, which was previously determined to be 9.8 mV under these conditions (Qu et al., 2001).

[3] = tested on: dogs with complete AV block; assay: Tandem biological and electronic pacemakers in dogs with complete AV block (injection into left bundle branch); assay type: in vivo, dog
Experimental: Adult mongrel dogs weighing 22-25 kg were anesthetized with propofol 6 mg/kg IV and inhalational isoflurane (1.5%-2.5%). Using a steerable catheter, saline (n=5), AdmHCN2 (n=6) or AdmE324A (n=4) were injected into the left bundle branch (LBB) as described previously (Plotnikov et al., 2004). In 2 additional dogs AdmE324A was injected into the LV septal myocardium as an internal control. Complete AV block was induced via radiofrequency ablation and each site of injection was paced via catheter electrode to distinguish electrocardiographically the origin of the idioventricular rhythm during the follow up period.
An electronic pacemaker (Discovery II, Flextend lead; Guidant, Indianapolis, Ind.) was implanted and set at VVI 45 bpm. ECG, 24 hour Holter monitoring, pacemaker log record check, and overdrive pacing at 80 bpm were performed daily for 14 days. To evaluate beta-adrenergic responsiveness, on day 14, epinephrine (1.0, 1.5 and 2.0 μg/kg/min for up to 10 min each) was infused to an endpoint of a 50% increase in idioventricular rate or ventricular arrhythmia (single ventricular premature beats having a morphology other than that of the dominant idioventricular rhythm or ventricular tachycardia), whichever occurred first. If none of the above responses was observed within 10 min after onset of the maximal dose of 2 μg/kg/min, the infusion was terminated.
Data are presented as means±SEM. […] One-way ANOVA was used to evaluate the effect of an implanted construct on electrophysiological parameters. Subsequent analysis was performed using Bonferroni's test where equal variances were assumed and the Games-Howell test where variances were unequal. A two-way contingency table analysis was conducted to evaluate whether epinephrine had different effects across three groups. Data were analyzed using SPSS for Windows software (SPSS, Inc.). P<0.05 was considered to be significant.
Complete AV block was induced via radiofrequency ablation, and electronic pacemakers were implanted into the right ventricular apical endocardium and set a VV1 45 bpm. ECG and 24-h monitoring were performed daily for 14 days. Beta-adrenergic responsiveness was also evaluated as described above.
Escape time was evaluated daily by performing three 30-s periods of ventricular overdrive pacing at 80 bpm followed by an abrupt cessation of pacing. The average time between the final electronically paced beat and the first intrinsic beat was then determined. […] There was a different result with regard to basal heart rates throughout the 14-day period, however.

[4] = tested on: cell-free patches from Xenopus oocytes; conditions: cited from earlier work
Xenopus oocytes = assay: Two-microelectrode voltage clamp of expressed HCN current in Xenopus oocytes; assay type: cell-based, Xenopus laevis
[5] = 10 μM cAMP in the pipette solution

B1: mHCN2: mouse HCN2 pacemaker ion channel (GenBank AJ225122), expressed from plasmid, cRNA or adenoviral construct AdmHCN2 (protein, UniProt O88703 1-863, looked up)
Potassium/sodium …: MDARGGGGRPGDSPGTTPAPGPPPPPPPPAPPQPQPPPAPPPNPTTPSHPESADEPGPRARLCSRDSACTPGAAKGGANGECGRGEPQCSPEGPARGPKVSFSCRGAASGPSAAEEAGSEEAGPAGEPRGSQASFLQRQFGALLQPGVNKFSLRMFGSQKAVEREQERVKSAGAWIIHPYSDFRFYWDFTMLLFMVGNLIIIPVGITFFKDETTAPWIVFNVVSDTFFLMDLVLNFRTGIVIEDNTEIILDPEKIKKKYLRTWFVVDFVSSIPVDYIFLIVEKGIDSEVYKTARALRIVRFTKILSLLRLLRLSRLIRYIHQWEEIFHMTYDLASAVMRICNLISMMLLLCHWDGCLQFLVPMLQDFPSDCWVSINNMVNHSWSELYSFALFKAMSHMLCIGYGRQAPESMTDIWLTMLSMIVGATCYAMFIGHATALIQSLDSSRRQYQEKYKQVEQYMSFHKLPADFRQKIHDYYEHRYQGKMFDEDSILGELNGPLREEIVNFNCRKLVASMPLFANADPNFVTAMLTKLKFEVFQPGDYIIREGTIGKKMYFIQHGVVSVLTKGNKEMKLSDGSYFGEICLLTRGRRTASVRADTYCRLYSLSVDNFNEVLEEYPMMRRAFETVAIDRLDRIGKKNSILLHKVQHDLSSGVFNNQENAIIQEIVKYDREMVQQAELGQRVGLFPPPPPPQVTSAIATLQQAVAMSFCPQVARPLVGPLALGSPRLVRRAPPGPLPPAASPGPPAASPPAAPSSPRAPRTSPYGVPGSPATRVGPALPARRLSRASRPLSASQPSLPHGVPAPSPAASARPASSSTPRLGPAPTARTAAPSPDRRDSASPGAASGLDPLDSARSRLSSNL
In the case of B1, the “rate of idioventricular rhythms” value [1] is listed as 50-60 bpm, the “shift of V1/2 by cAMP” value [2, 5] is listed as 9.7 mV and the “percentage of myocytes expressing current” value ([2]; 6 matched cell cultures) is listed as 74.5%. The midpoint of activation ([2]; HCN2 virus characterized in neonatal rat myocytes) was −69.3 mV, the “activation τ” value ([2]; at −65 mV) was 639 ± 72 ms and the V1/2 [2, 5] was −59.9 mV. It also gave a s [2, 5] of 11.0 mV, a V1/2 ([2]; absence of cAMP) of −69.6 mV and a s ([2]; absence of cAMP) of 10.8 mV. The slope factor s ([2]; mean of individual Boltzmann fits) was 10.7±0.5 mV, the “V1/2 (voltage of half maximum activation)” value ([2]; mean of individual Boltzmann fits, adenoviral infection) was −66.1±1.5 mV and the current density [2] was 53.5±8.7 pA/pF. For the same molecule, the current density ([2]; listed as HCN2) was 53.5±8.3 pA/pF, the “share of animals with 50% or more increase that required the highest dose of epinephrine” value ([3]; 2 μg/kg/min) was 33% and the “beats triggered by the electronic pacemaker, of all beats” value ([3]; 14 days, electronic pacemaker set at VVI 45 bpm) was 26±6%. For the same molecule, the “arrhythmias during epinephrine infusion” value ([3]; day 14) was “two animals developed ventricular arrhythmias”, the “mean basal heart rate compared with saline group” value ([3]; days 1-7 and 8-14) was “significantly faster” and the “animals with less than a 50% increase in rate” value ([3]; epinephrine 1.0, 1.5, 2.0 μg/kg/min, day 14) was 50%. For the same molecule, the “control rate prior to epinephrine” value ([3]; representative animal, day 14) was 44 bpm, the rate with epinephrine ([3]; representative animal, epinephrine 1 μg/kg/min) was 60 bpm and the “shift of activation curve to more positive potentials by cAMP” value [4] was 17 mV. For the same molecule, the “activation more negative than mE324A” value (Xenopus oocytes) was 35 mV and the “effect of Cs+ on inward current” value (Xenopus oocytes; 5 mM Cs+) was “blocked; also recorded: large inhibition”.
